{
  "source": "paper PMC12135134",
  "target": "recombinant human IgG1 Fc fragment (recFc), residues 236–444 of the rituximab heavy chain, non-glycosylated homodimer (human)",
  "assay": "crystal structure; co-crystal of the complex isolated by SEC after mixing affitin and Fc chain 4:1; hanging drop, 20 °C, 24% w/v PEG8000, 0.1 M Tris/HCl pH 8.5; space group P2_(1), 2.90 Å",
  "data": [
    {"substance": "recombinant human IgG1 Fc fragment (recFc), residues 236–444 of the rituximab heavy chain, non-glycosylated homodimer (domain or fragment)", "values": [
      {"measurement": "stoichiometry N (chains in the oligomer)", "result": 2}
    ]}
  ]
}
